The subject of one assay is chromatin strands. In words: degradation of chromatin strands with other endonucleases. It is filed as biochemical. The note with it: isolated chromatin strands.
Assay [1] has as its system chromatin strands from normal human microvascular endothelial cells. The assay can be described thus: proteinase K treatment of isolated chromatin strands. As to conditions: normal endothelial cell chromatin; proteinase K 5 mg/ml, 5 minutes. It is filed as biochemical. As to the method: (§1) FIGS. 2D and 2E illustrate the effects of treatment of chromatin strands from normal human microvascular endothelial cells and invasive HT1080 fibrosarcoma cells with proteinase K under the conditions described above except that proteinase K (5 mg/ml) was substituted for ALU and the incubation time was reduced from 60 minutes to 5 minutes.

Assay [2] concerns chromatin strands from invasive HT1080 fibrosarcoma cells. The description is as above. As to conditions: proteinase K 5 mg/ml, 5 minutes. The class given is biochemical, human. The procedure:
as §1

B1: RNase A: nuclease (protein, UniProt P61823 27-150, looked up)
Ribonuclease pancreatic: KETAAAKFERQHMDSSTSAASSSNYCNQMMKSRNLTKDRCKPVNTFVHESLADVQAVCSQKNVACKNGQTNCYQSYSTMSITDCRETGSSKYPNCAYKTTQANKHIIVACEGNPYVPVHFDASV
Regarding B1, in the assay with chromatin strands, the “correlation of chromatin cleavage pattern with invasive potential of the cell” value is recorded as “does not exhibit chromatin cleavage patterns that correlate with the invasive potential”.

B2: proteinase K: protease proteinase K, chromatin modifying agent (protein, UniProt P06873 106-384, looked up)
Proteinase K: AAQTNAPWGLARISSTSPGTSTYYYDESAGQGSCVYVIDTGIEASHPEFEGRAQMVKTYYYSSRDGNGHGTHCAGTVGSRTYGVAKKTQLFGVKVLDDNGSGQYSTIIAGMDFVASDKNNRNCPKGVVASLSLGGGYSSSVNSAAARLQSSGVMVAVAAGNNNADARNYSPASEPSVCTVGASDRYDRRSSFSNYGSVLDIFGPGTSILSTWIGGSTRSISGTSMATPHVAGLAAYLMTLGKTTAASACRYIADTANKGDLSNIPFGTVNLLAYNNYQA
On to B2, for which the “chromatin dispersion (FIGS. 2D, 2E)” value in assay [1] is on record as “remained largely intact”; in assay [2], “extensively dispersed”.

(Values after US20050079516A1, “Chromosome stability assay” (The Board of Trustees of the University of Illinois, priority 2003, published 2005).)
